Numbering of substitutions follows the chain as printed. In names and notes the source's numbering stands.
B1: Cas12f I118R mutant (protein)
chain: MAKNTITKTLKLRIVRPYNSAEVEKIVADEKNNREKIALEKNKDKVKEACSKHLKVAAYCTTQVERNACLFCKARKLDDKFYQKLRGQFPDAVFWQEISEIFRQLQKQAAEIYNQSLRELYYEIFIKGKGIANASSVEHYLSDVCYTRAAELFKNAAIASGLRSKIKSNFRLKELKNMKSGLPTTKSDNFPIPLVKQKGGQYTGFEISNHNSDFIIKIPFGRWQVKKEIDKYRPWEKFDFEQVQKSPKPISLLLSTQRRKRNKGWSKDEGTEAEIKKVMNGDYQTSYIEVKRGSKIGEKSAWMLNLSIDVPKIDKGVDPSIIGGIDVGVKSPLVCAINNAFSRYSISDNDLFHFNKKMFARRRILLKKNRHKRAGHGAKNKLKPITILTEKSERFRKKLIERWACEIADFFIKNKVGTVQMENLESMKRKEDSYFNIRLRGFWPYAEMQNKIEFKLKQYGIEIRKVAPNNTSKTCSKCGHLNNYFNFEYRKKNKFPHFKCEKCNFKENADYNAALNISNPKLKSTKEEP
B2: Cas12f Y122A mutant (protein)
chain: B1 chain with R118I, Y122A
B3: Cas12f I126R mutant (protein)
chain: B1 chain with R118I, I126R
B4: Cas12f M178R mutant (protein)
chain: B1 chain with R118I, M178R
B5: Cas12f I118R/Y122A/I126R/M178R (RARR) mutant (protein)
chain: B1 chain with Y122A, I126R, M178R
B6: WT sgRNA (ssRNA)
RNA: GGUUCACUGAUAAAGUGGAGAACCGCUUCACCAAAAGCUGUCCCUUAGGGGAUUAGAACUUGAGUGAAGGUGGGCUGCUUGCAUCAGCCUAAUGUCGAGAAGUGCUUUCUUCGGAAAGUAACCCUCGAAACAAAUUCAUUUGAAAGAAUGAAGGAAUGCAACGGAAAUUAGGUGCGCUUGGC

Key:
Cas12f RARR = biological target: T1, Cas12f RARR (uncultured archaeon, UniProt A0A482D308 SEQ:1-529, I118R,Y122A,I126R,M178R); assay: size exclusion co-elution; 5 mM MgCl2, 50 mM NaCl, pH 8.0; details: tags: N-terminal His6; chain copies: 2 (stated)
T1 sequence: B1 chain with Y122A, I126R, M178R
Experimental: (§1) The peak fraction was analyzed by SDS-PAGE and Urea PAGE. The WT Cas12f protein and the RARR mutant were each eluted together with sgRNA at the same position.

Cas12f (Cas12f1, Cas14a) = biological target: T2, Cas12f (Cas12f1, Cas14a) (uncultured archaeon, UniProt A0A482D308 SEQ:1-529); assay: as above; details: tags: N-terminal His6; chain copies: 2 (stated)
T2 sequence: B1 chain with R118I
Experimental: as §1

Binder | in vitro DNA cleavage activity | binding result (Cas12f RARR) | binding result (Cas12f (Cas12f1, Cas14a))
B1 | reduced the DNA cleavage activity |  | 
B2 | reduced the DNA cleavage activity |  | 
B3 | reduced the DNA cleavage activity |  | 
B4 | reduced the DNA cleavage activity |  | 
B5 | lacked the DNA cleavage activity |  | 
B6 |  | binds | binds
